Measurements from article PMC6286341, “The reduced activity of PP-1α under redox stress condition is a consequence of GSH-mediated transient disulfide formation” (Scientific Reports, 2018).

Biological target: the molecule itself
Assay: disulfide-linked peptides by LC-MS/MS (cross-over-read search); non-treated bovine SOD1, filter-aided sample preparation, trypsin/chymotrypsin digest

B1: bovine superoxide dismutase 1 (SOD1) (enzyme)
chain: not shown
modifications: N-terminal acetylation (N-terminally acetylated Cys7 peptides)
notes: superoxide dismutase 1, bovine; 3 Cys residues Cys7, Cys56 and Cys145; also called bovine SOD1; source: bought: Sigma Aldrich S7571
Does B1 bind?
Result: binds
